Results: patent publication US20250296992A1 (Genmab, published 2025)

What was measured:
[1] = molecular target: T1, human SLITRK6 on cells (human, UniProt Q9H5Y7 27-841); test: flow cytometry on 293F-SLITRK6-C9 cells
T1 construct: whole, on cells
Protocol: (§1) The binding activity of mAbs and ADCs was evaluated by flow cytometer (Beckman, Cytoflex). Specifically, cells were incubated with 50 μL of mAbs or ADCs in series dilutions in PBS containing 1% BSA at 4° C. for 30 min. The cells were washed twice with PBS containing 1% BSA, stained with PE-conjugated anti human Fc in PBS containing 1% BSA and then incubated at 4° C. for 20 min. After that the cells were washed twice with PBS and analyzed by a flow cytometer.

[2] = molecular target: T1, human SLITRK6 on cells; test: flow cytometry on SCC-4 cells
Protocol: (§2) The binding activity of mAbs was evaluated by flow cytometer (Beckman, Cytoflex). Specifically, cells were incubated with 50 μL of mAbs or ADCs in series dilutions in PBS containing 1% BSA at 4° C. for 30 minutes. The cells were washed twice with PBS containing 1% BSA, stained with PE-conjugated anti human Fc in PBS containing 1% BSA and then incubated at 4° C. for 20 min. After that the cells were washed twice with PBS and analyzed by a flow cytometer.

[3] = molecular target: T2, human SLITRK6 extracellular domain linked to his tag (human, UniProt Q9H5Y7 27-608); test: BLI; antigen ECD-his on anti-his tips, antibody as analyte; 1:1 fit;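 also: antibody at several concentrations, 180 s association then 300 s dissociation in Tris buffer at pH 6 or 7.5, rate constants from global fitting, KD computed as koff/kon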
T2 construct: extracellular domain; also called huSLITRK6; Hu SLITRK6; not shown: his tag

[4] = molecular target: T3, cynomolgus monkey SLITRK6 extracellular domain linked to his tag (cynomolgus monkey, UniProt G7PVK4 27-608); test: as above
T3 construct: extracellular domain; also called cynoSLITRK6; Cyno SLITRK6; not shown: his tag

[5] = molecular target: T1, human SLITRK6 on cells; test: flow cytometry on RT4 cells
Protocol: as §2

[6] = molecular target: T1, human SLITRK6 on cells; test: flow cytometry on SW780 cells
Protocol: as §2

[7] = molecular target: T1, human SLITRK6 on cells; test: flow cytometry on CHP-212 cells
Protocol: as §1

[8] = molecular target: T1, human SLITRK6 on cells; test: flow cytometry on RT112/84 cells
Protocol: as §2

[9] = molecular target: T1, human SLITRK6 on cells; test: flow cytometry on RT4 cells; remark: listed apart in the source
Protocol: as §1

[10] = molecular target: T1, human SLITRK6 on cells; test: flow cytometry on CHP-212 cells; remark: listed apart in the source
Protocol: as §2

[11] = molecular target: T1, human SLITRK6 on cells; test: flow cytometry on SW780 cells; remark: listed apart in the source
Protocol: as §1

[12] = molecular target: T2, human SLITRK6 extracellular domain …; test: ELISA, coated antigen
Protocol: (§3) First, a purified antigen was adsorbed to the surface of a PVC 96-well plate for ELISA at 4° C. overnight, the plate was washed twice by filling the wells with 350 μL TBST buffer (200 mM Sodium Chloride, 20 mM Tris, 0.05% Tween-20, pH 8). The surface of the solid phase having no antigen adsorbed thereto was covered with BSA. After washing the surface with TBST buffer, the surface was incubated with a serially diluted mAb as a primary antibody to bind to the antigen for 1 hour at room temperature. The plate was washed twice with TBST buffer and added an antibody labeled with an enzyme as a secondary antibody to incubate for 1 hour at room temperature.

[13] = molecular target: T3, cynomolgus monkey SLITRK6 extracellular …; test: ELISA, coated antigen
Protocol: as §3

[14] = molecular target: T4, rat SLITRK6 (rat, UniProt D3ZP44 27-607); test: ELISA, coated antigen
T4 construct: extracellular domain; not shown: his tag

[15] = molecular target: T1, human SLITRK6 on cells; test: flow cytometry on 293F-huSLITRK6-C9 cells
Protocol: The binding activity of mAbs was evaluated by flow cytometer (Beckman, Cytoflex). Specifically, cells were incubated with 50 μL of mAbs or ADCs in series dilutions in PBS containing 1% BSA at 4° C. for 30 min. The cells were washed twice with PBS containing 1% BSA, stained with PE-conjugated anti human Fc in PBS containing 1% BSA and then incubated at 4° C. for 20 min. After that the cells were washed twice with PBS and analyzed by a flow cytometer.

[16] = molecular target: T2, human SLITRK6 extracellular domain …; test: BLI binning on huSLITRK6-his; Ab1 = row antibody first, then Ab2 (competitor) = hu14G1-03
Protocol: (§4) Epitope binning was characterized by the bio-layer interferometry (BLI). 100 nM of human SLITRK6′ extracellular domain linked to his tag was immobilized on anti-his biosensor tips (Fortebio). The sensors were rinsed with the buffer (50 mM Tris-AcOH, pH 6 or 7.5, 0.05% v/v surfactant P20) for 30 seconds to remove the unbound molecules, then dipped in the 100 nM of antibody 1 solutions for 180 seconds and interspersed by a rinsing step in the buffer solution for 300 seconds. After that, the sensors were dipped in the 100 nM of antibody 2 solutions. The epitope cluster was calculated using ForteBio Data Acquisition 6.3 software.

[17] = molecular target: T2, human SLITRK6 extracellular domain …; test: BLI binning on huSLITRK6-his; Ab1 = row antibody first, then Ab2 (competitor) = phA290
Protocol: as §4

[18] = molecular target: T2, human SLITRK6 extracellular domain …; test: BLI binning on huSLITRK6-his; Ab1 = row antibody first, then Ab2 (competitor) = Sirtratumab
Protocol: as §4

[19] = molecular target: T2, human SLITRK6 extracellular domain …; test: BLI binning on huSLITRK6-his; Ab1 = row antibody first, then Ab2 (competitor) = hu1H2-03
Protocol: as §4

[20] = molecular target: T2, human SLITRK6 extracellular domain …; test: BLI binning on huSLITRK6-his; Ab1 = row antibody first, then Ab2 (competitor) = hu1H2-13
Protocol: as §4

[21] = molecular target: T2, human SLITRK6 extracellular domain …; test: BLI binning on huSLITRK6-his; Ab1 = row antibody first, then Ab2 (competitor) = phA108
Protocol: as §4

[22] = molecular target: T1, human SLITRK6 on cells; test: flow cytometry on CHP-212 cells, PE-conjugated anti-human Fc
Protocol: (§5) Specifically, cells were incubated with 50 μL of mAbs or ADCs in series dilutions in PBS containing 1% BSA at 4° C. for 30 min. The cells were washed twice with PBS containing 1% BSA, stained with PE-conjugated anti human Fc in PBS containing 1% BSA and then incubated at 4° C. for 20 min. After that the cells were washed twice with PBS and analyzed by a flow cytometer.

[23] = molecular target: T1, human SLITRK6 on cells; test: flow cytometry on SW780 cells, PE-conjugated anti-human Fc
Protocol: as §5

[24] = molecular target: T1, human SLITRK6 on cells; test: as above; remark: listed apart in the source
Protocol: as §1

[25] = molecular target: T5, mouse SLITRK6 (mouse, UniProt Q8C110 23-609); test: BLI; antigen-his on anti-his tips, antibody or ADC as analyte; 1:1 fit
T5 construct: extracellular domain; also called Mu SLITRK6; not shown: his tag

[26] = molecular target: T2, human SLITRK6 extracellular domain …; test: as above
Protocol: (§6) Binding kinetic of antibody-antigen was characterized by the bio-layer interferometry (BLI). 100 nM of SLITRK6′ extracellular domain linked to his tag was immobilized on anti-his biosensor tips (Fortebio). The sensors were rinsed with the buffer (50 mM Tris-AcOH, pH 6 or 7.5, 0.05% v/v surfactant P20) for 10 min to remove the unbound molecules, then dipped in the antibody solutions at different concentrations for 180 seconds and interspersed by a rinsing step in the buffer solution for 300 seconds. Binding affinity was calculated using ForteBio Data Acquisition 6.3 software (ForteBio) and was derived by fitting the kinetic data to a 1:1 Langmuir binding model utilizing global fitting algorithms. The dissociation or association equilibrium constant KD was calculated from the binding rate constants as KD=koff/kₒₙ (where koff and kₒₙ represent the dissociation kinetic constant and the association kinetic constant, respectively).

[27] = molecular target: T3, cynomolgus monkey SLITRK6 extracellular …; test: as above
Protocol: as §6

[28] = molecular target: T4, rat SLITRK6; test: as above
Protocol: as §6

[29] = molecular target: T1, human SLITRK6 on cells; test: flow cytometry on 293F-huSLITRK6 cells, PE-conjugated anti-human Fc
Protocol: as §5

[30] = molecular target: T1, human SLITRK6 on cells; test: flow cytometry on RT4 cells, PE-conjugated anti-human Fc
Protocol: as §1

[31] = molecular target: T1, human SLITRK6 on cells; test: as above; remark: listed apart in the source
Protocol: as §5

[32] = molecular target: T1, human SLITRK6 on cells; test: flow cytometry on KYSE-30 cells, PE-conjugated anti-human Fc
Protocol: as §5

T5 sequence (Q8C110 23-609): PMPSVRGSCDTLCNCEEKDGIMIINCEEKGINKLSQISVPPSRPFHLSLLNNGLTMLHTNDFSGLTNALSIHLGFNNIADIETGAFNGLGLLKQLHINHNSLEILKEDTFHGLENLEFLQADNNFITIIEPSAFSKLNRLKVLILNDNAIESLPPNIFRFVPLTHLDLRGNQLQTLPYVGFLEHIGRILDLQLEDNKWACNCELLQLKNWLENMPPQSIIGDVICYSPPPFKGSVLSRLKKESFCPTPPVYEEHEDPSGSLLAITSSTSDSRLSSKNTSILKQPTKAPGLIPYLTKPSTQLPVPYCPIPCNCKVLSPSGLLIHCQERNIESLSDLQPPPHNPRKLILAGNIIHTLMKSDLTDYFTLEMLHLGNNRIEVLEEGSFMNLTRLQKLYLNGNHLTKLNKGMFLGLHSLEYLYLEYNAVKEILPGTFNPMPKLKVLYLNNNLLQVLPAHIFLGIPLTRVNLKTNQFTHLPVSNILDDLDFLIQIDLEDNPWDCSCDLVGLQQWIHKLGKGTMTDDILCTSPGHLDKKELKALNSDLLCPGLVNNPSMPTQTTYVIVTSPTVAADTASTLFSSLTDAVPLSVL

| Binder | EC50 [1] [nM] | EC50 [2] [nM] | Kd [3] [nM] | Kd [4] [nM] | EC50 [5] [nM] | EC50 [6] [nM] | EC50 [7] [nM] | EC50 [8] [nM] | EC50 [9] [nM] | EC50 [10] [nM] | EC50 [11] [nM] | EC50 [12] [nM] | EC50 [13] [nM] | EC50 [14] [nM] | EC50 [15] [nM] | epitope binning signal [16] | koff [3] [s⁻¹] | kon [3] [M⁻¹ s⁻¹] | koff [4] [s⁻¹] | kon [4] [M⁻¹ s⁻¹] | other results |
| --- | --- | --- | --- | --- | --- | --- | --- | --- | --- | --- | --- | --- | --- | --- | --- | --- | --- | --- | --- | --- | --- |
| phA290 (antibody, V domains shown, From phage display, then full-length construction; Only the variable regions are tied to the name) VH: QVQLVQSGAEVKKPGASVKVSCKASGYTFTSYYMHWVRQAPGQGLEWMGIINPSGGSTSYAQKFQGRVTMTRDTSTSTVYMELSSLRSEDTAVYYCARGFTRYFDYWGQGTLVTVSA VL: EIVMTQSPGTLSLSPGERATLSCRASQSVSKYLAWYQQRPGQAPRLLIYDASNRATGIPARFSGSGSGTDFTLTVSSLEPEDFAVYYCQQRYNWPLTFGGGTTVEIK | 1.16 | 0.15 | 1.06 | 3.14 | 0.14 | 0.27 | 0.16 | 0.08 | 0.14 | 0.14 | 0.27 | 0.09 | 0.06 | 0.18 | 1.16 |  |  |  |  |  |  |
| phA108 (antibody, V domains shown, From phage display, then full-length construction; Only the variable regions are tied to the name) VH: QVQLVQSGAEVKKPGASVKVSCTASGYIFNDYYLHWVRQAPGQGLEWVGIINPSGGSPVYAQKFQGRVTMTRDTSTNTVYMELSSLRSEDTAVYYCARGMVRGVRLFDYWGQGTLVTVSA VL: EIVLTQSPATLSLSPGERATLSCRASQSVSSYLAWYQQKPGQTPRLLIYDASNRATGVPARFSGSGSGTDFTLTISSLETEDFAVYYCQQRTNWPLTFGGGTKVEIK | 0.87 | 0.18 | 1.05 | 4.69 | 0.1 | 0.27 | 0.14 | 0.1 | 0.12 | 0.14 | 0.27 | 0.05 | 0.06 | 0.29 | 0.87 | 0.274 | 0.000969 | 924000 | 0.00379 | 809000 | epitope binning signal [17]: 0.0375; epitope binning signal [18]: 0.276; epitope binning signal [19]: 0.292; epitope binning signal [20]: 0.285; epitope binning signal [21]: 0.0346 |
| Sirtratumab (antibody, V domains shown, Prior-art benchmark antibody; also called Sirtratuzumab) VH: QVQLVESGGGVVQPGRSLRLSCAASGFTFSSYGMHWVRQAPGKGLEWVAVIWYDGSNQYYADSVKGRFTISRDNSKNTLFLQMHSLRAEDTAVYYCARGLTSGRYGMDWGQGTTVTVSS VL: DIVMTQSPLSLPVTPGEPASISCRSSQSLLLSHGFNYLDWYLQKPGQSPQLLIYLGSSRASGVPDRFSGSGSGTDFTLKISRVEAEDVGLYYCMQPLQIPWTFGQGTKVEIK | 1.41 |  | 5 | 6.01 | 0.2 | 0.33 | 0.25 | 0.2 | 0.26 | 0.21 | 0.39 | 0.06 | 0.06 | 0.88 | 1.41 | 0.244 | 0.00416 | 831000 | 0.0037 | 615000 | EC50 (read off the curve) [22]: ~0.1 nM; EC50 (read off the curve) [23]: ~0.2 nM; epitope binning signal [17]: 0.256; epitope binning signal [18]: 0.0645; EC50 (read off the curve) [24]: ~0.3 nM; Kd [25]: 3.5 nM; Kd [26]: 0.35 nM; Kd [27]: 1.2 nM; Kd [28]: 1.5 nM; epitope binning signal [19]: 0.281; EC50 (read off the curve) [29]: ~1 nM; epitope binning signal [20]: 0.282; EC50 (read off the curve) [30]: ~0.3 nM; epitope binning signal [21]: 0.252; EC50 (read off the curve) [31]: ~0.2 nM |
| AGS15E (antibody, V domains shown, drug conjugate; drug-linker and positions not given, also called ADC of Sirtratumab) VH: QVQLVESGGGVVQPGRSLRLSCAASGFTFSSYGMHWVRQAPGKGLEWVAVIWYDGSNQYYADSVKGRFTISRDNSKNTLFLQMHSLRAEDTAVYYCARGLTSGRYGMDWGQGTTVTVSS VL: DIVMTQSPLSLPVTPGEPASISCRSSQSLLLSHGFNYLDWYLQKPGQSPQLLIYLGSSRASGVPDRFSGSGSGTDFTLKISRVEAEDVGLYYCMQPLQIPWTFGQGTKVEIK |  |  |  |  |  |  |  |  |  |  |  |  |  |  |  |  |  |  |  |  | EC50 (read off the curve) [22]: ~0.2 nM; EC50 (read off the curve) [23]: ~0.3 nM; EC50 (read off the curve) [24]: ~0.2 nM; Kd [25]: 1.9 nM; Kd [26]: 0.3 nM; Kd [27]: 0.87 nM; Kd [28]: 1.2 nM; EC50 (read off the curve) [32]: ~0.5 nM; EC50 (read off the curve) [29]: ~1 nM; EC50 (read off the curve) [30]: ~0.3 nM; EC50 (read off the curve) [31]: ~0.3 nM |
